Laboratory results as given in the supplement of paper PMC10567573.

B1: KRT13 (parent)
chain: TSSASVTTTSNASGRRTSDVRRP

Variants of: B1
Assay: protein stability index of a GFP-peptide fusion (GPS, HEK-293T) (PSI 1-6); higher = more stable
Conditions: c terminus: native
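Also: lentivirally expressed fusions sorted by FACS into six bins by GFP to DsRed ratio, PSI derived from sequencing read proportions per bin multiplied by bin number.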

Compared with TSSASVTPTSNASGRRTSDVRRP [T8P], TSSASVTKTSNASGRRTSDVRRP [T8K] is higher in protein stability index: 1.64 for the first, 3.7 for the second.

Going from TSSASVTFTSNASGRRTSDVRRP [T8F] to TSSASVTNTSNASGRRTSDVRRP [T8N], the protein stability index rises from 2.35 to 2.98.

Going from TSSASVTATSNASGRRTSDVRRP [T8A] to TSSASVTQTSNASGRRTSDVRRP [T8Q], the protein stability index falls from 3.85 to 3.25.

First: TSSASVTDTSNASGRRTSDVRRP [T8D]
Second: TSSASVTETSNASGRRTSDVRRP [T8E]
The protein stability index of the first is lower: 2.08 for the first, 3.31 for the second.

Compared with TSSASVTGTSNASGRRTSDVRRP [T8G], TSSASVTYTSNASGRRTSDVRRP [T8Y] is higher in protein stability index: 2.26 for the first, 3.44 for the second.

Going from TSSASVTTTSNASGRRTFDVRRP [S18F] to TSSASVTTTSNASGRRTMDVRRP [S18M], the protein stability index rises from 1.56 to 1.77.

Going from TSSASVTTTSNASGRRTVDVRRP [S18V] to TSSASVTTTSNASGRRTPDVRRP [S18P], the protein stability index falls from 3.51 to 2.02.

First: TSSASVTTTSNASGRRTTDVRRP [S18T]
Second: TSSASVTTTSNASGRRTKDVRRP [S18K]
The protein stability index of the first is higher: 2.85 for the first, 1.3 for the second.

Compared with TSSASVTTTSNASGRRTLDVRRP [S18L], TSSASVTTTSNASGRRTGDVRRP [S18G] is lower in protein stability index: 2.03 for the first, 1.23 for the second.

Going from TSSASVTTTSNASGRRTEDVRRP [S18E] to TSSASVTTTSNASGRRTDDVRRP [S18D], the protein stability index falls from 2.45 to 2.19.

Compared with TSSASVTTTSNASGRRTQDVRRP [S18Q], TSSASVTTTSNASGRRTADVRRP [S18A] is higher in protein stability index: 2.82 for the first, 4.56 for the second.

First: TSSASVTTTSNASGRRTSFVRRP [D19F]
Second: TSSASVTTTSNASGRRTSYVRRP [D19Y]
The protein stability index of the first is higher: 2.83 for the first, 1.92 for the second.

Going from TSSASVTTTSNASGRRTSTVRRP [D19T] to TSSASVTTTSNASGRRTSNVRRP [D19N], the protein stability index falls from 2.69 to 2.26.

Compared with TSSASVTTTSNASGRRTSIVRRP [D19I], TSSASVTTTSNASGRRTSLVRRP [D19L] is higher in protein stability index: 2.44 for the first, 2.61 for the second.

First: TSSASVTTTSNASGRRTSHVRRP [D19H]
Second: TSSASVTTTSNASGRRTSRVRRP [D19R]
The protein stability index of the first is lower: 1.73 for the first, 2.08 for the second.

Compared with TSSASVTTTSNASGRRTSCVRRP [D19C], TSSASVTTTSNASGRRTSMVRRP [D19M] is higher in protein stability index: 2.52 for the first, 3.59 for the second.

First: TSSASVTTTSNASGRRTSVVRRP [D19V]
Second: TSSASVTTTSNASGRRTSKVRRP [D19K]
The protein stability index of the first is higher: 3.02 for the first, 2.25 for the second.

Going from TSSASVTTTSNASGRRTSSVRRP [D19S] to TSSASVTTTSNASGRRTSPVRRP [D19P], the protein stability index rises from 2.07 to 2.86.

Going from TSSASVTTTSNAQGRRTSDVRRP [S13Q] to TSSASVTTTSNARGRRTSDVRRP [S13R], the protein stability index rises from 1.37 to 1.4.

Going from TSSASVTTTSNAVGRRTSDVRRP [S13V] to TSSASVTTTSNAKGRRTSDVRRP [S13K], the protein stability index falls from 3.04 to 1.94.

Going from TSSASVTTTSNAPGRRTSDVRRP [S13P] to TSSASVTTTSNALGRRTSDVRRP [S13L], the protein stability index rises from 2.41 to 2.47.

First: TSSASVTTTSNAEGRRTSDVRRP [S13E]
Second: TSSASVTTTSNAAGRRTSDVRRP [S13A]
The protein stability index of the first is lower: 1.7 for the first, 2.97 for the second.

First: TSSASVTTTSNADGRRTSDVRRP [S13D]
Second: TSSASVTTTSNATGRRTSDVRRP [S13T]
The protein stability index of the first is lower: 1.45 for the first, 5.7 for the second.

First: TSSASVTTTSNAWGRRTSDVRRP [S13W]
Second: TSSASVTTTSNAGGRRTSDVRRP [S13G]
The protein stability index of the first is lower: 1.04 for the first, 1.7 for the second.

Going from TSSATVTTTSNASGRRTSDVRRP [S5T] to TSSANVTTTSNASGRRTSDVRRP [S5N], the protein stability index falls from 4.31 to 2.44.

First: TSSAQVTTTSNASGRRTSDVRRP [S5Q]
Second: TSSAMVTTTSNASGRRTSDVRRP [S5M]
The protein stability index of the first is higher: 2.59 for the first, 1.88 for the second.

First: TSSAKVTTTSNASGRRTSDVRRP [S5K]
Second: TSSASVTTTSNASGRRTSDNRRP [V20N]
The protein stability index of the first is lower: 1.9 for the first, 2.13 for the second.

Going from TSSASVTTTSNASGRRTSDTRRP [V20T] to TSSASVTTTSNASGRRTSDARRP [V20A], the protein stability index falls from 4.51 to 1.63.

Going from TSSASVTTTSNASGRRTSDERRP [V20E] to TSSASVTTTSNASGRRTSDIRRP [V20I], the protein stability index rises from 2.52 to 4.34.

Going from TSSASVTTTSNASGRRTSDGRRP [V20G] to TSSASVTTTSNASGRRTSDKRRP [V20K], the protein stability index rises from 2.03 to 2.73.

Going from TSSASVTTTSNASGRRTSDDRRP [V20D] to TSSASVTTTSNASGRRTSDQRRP [V20Q], the protein stability index rises from 1.76 to 2.06.

Going from TSSASVTTTSNASGRRTSDHRRP [V20H] to TSSASVTTTSNASGRRTSDPRRP [V20P], the protein stability index falls from 2.51 to 2.31.

Compared with TSSASVTTTSNASGRRTSDYRRP [V20Y], TSSASVTTTSNASGRRTSDCRRP [V20C] is lower in protein stability index: 2.38 for the first, 2.16 for the second.

Compared with TSSASVTTTVNASGRRTSDVRRP [S10V], TSSASVTTTPNASGRRTSDVRRP [S10P] is lower in protein stability index: 2.99 for the first, 2.11 for the second.

First: TSSASVTTTCNASGRRTSDVRRP [S10C]
Second: TSSASVTTTQNASGRRTSDVRRP [S10Q]
The protein stability index of the first is higher: 4.58 for the first, 2.12 for the second.

Compared with TSSASVTTTHNASGRRTSDVRRP [S10H], TSSASVTTTFNASGRRTSDVRRP [S10F] is higher in protein stability index: 2.48 for the first, 2.96 for the second.

Going from TSSASVTTTDNASGRRTSDVRRP [S10D] to TSSASVTTTENASGRRTSDVRRP [S10E], the protein stability index falls from 2.05 to 2.03.

First: TSSASVTTTTNASGRRTSDVRRP [S10T]
Second: TSSASVTTTYNASGRRTSDVRRP [S10Y]
The protein stability index of the first is lower: 1.6 for the first, 1.98 for the second.

First: TSSASVTTTSNASERRTSDVRRP [G14E]
Second: TSSASVTTTSNASPRRTSDVRRP [G14P]
The protein stability index of the first is higher: 2.97 for the first, 1.88 for the second.

Going from TSSASVTTTSNASQRRTSDVRRP [G14Q] to TSSASVTTTSNASARRTSDVRRP [G14A], the protein stability index rises from 2.23 to 3.4.

First: TSSASVTTTSNASSRRTSDVRRP [G14S]
Second: TSSASVTTTSNASVRRTSDVRRP [G14V]
The protein stability index of the first is higher: 3.57 for the first, 2.64 for the second.

First: TSSASVTTTSNASMRRTSDVRRP [G14M]
Second: TSSASVTTTSNASLRRTSDVRRP [G14L]
The protein stability index of the first is lower: 3.29 for the first, 3.71 for the second.

First: TSSASVTTTSNASIRRTSDVRRP [G14I]
Second: TSSASVTTTSNASYRRTSDVRRP [G14Y]
The protein stability index of the first is higher: 2.46 for the first, 2.32 for the second.

Compared with TSSASVTTTSNASRRRTSDVRRP [G14R], TSSASVTTTSNASCRRTSDVRRP [G14C] is lower in protein stability index: 2.21 for the first, 1.75 for the second.

Going from TSSASVTTTSNASNRRTSDVRRP [G14N] to TSSASVTTTSNASDRRTSDVRRP [G14D], the protein stability index falls from 2.03 to 1.88.

Compared with TSSASVTTTSNASTRRTSDVRRP [G14T], TSSASVFTTSNASGRRTSDVRRP [T7F] is lower in protein stability index: 2.3 for the first, 2.24 for the second.

Compared with TSSASVATTSNASGRRTSDVRRP [T7A], TSSASVNTTSNASGRRTSDVRRP [T7N] is lower in protein stability index: 2.46 for the first, 1.45 for the second.

Going from TSSASVLTTSNASGRRTSDVRRP [T7L] to TSSASVPTTSNASGRRTSDVRRP [T7P], the protein stability index falls from 2.23 to 1.66.

With TSSASVYTTSNASGRRTSDVRRP [T7Y] the protein stability index was 4.47.
